Measured values reported in article PMC13330650 (Matrix biology : journal of the International Society for …, 2025).
Numbering of substitutions follows the chain as printed. Numbers in names are those of the source.

B1: UGDH T325D: obligate dimeric UGDH mutant, T325 to aspartate (protein, UniProt O60701 1-494, looked up, variant T325D)
UDP-glucose 6-dehydrogenase: MFEIKKICCIGAGYVGGPTCSVIAHMCPEIRVTVVDVNESRINAWNSPTLPIYEPGLKEVVESCRGKNLFFSTNIDDAIKEADLVFISVNTPTKTYGMGKGRAADLKYIEACARRIVQNSNGYKIVTEKSTVPVRAAESIRRIFDANTKPNLNLQVLSNPEFLAEGTAIKDLKNPDRVLIGGDETPEGQRAVQALCAVYEHWVPREKILTTNTWSSELSKLAANAFLAQRISSINSISALCEATGADVEEVATAIGMDQRIGNKFLKASVGFGGSCFQKDVLNLVYLCEALNLPEVARYWQQVIDMNDYQRRRFASRIIDSLFNDVTDKKIAILGFAFKKDTGDTRESSSIYISKYLMDEGAHLHIYDPKVPREQIVVDLSHPGVSEDDQVSRLVTISKDPYEACDGAHAVVICTEWDMFKELDYERIHKKMLKPAFIFDGRRVLDGLHNELQTIGFQIETIGKKVSSKRIPYAPSGEIPKFSLQDPPNKKPKV
B2: WT: purified recombinant human wild-type UGDH (protein)
chain: B1 UDP-glucose 6-dehydrogenase with D325T
modifications: left off: His6, end not stated, state not stated
notes: purified recombinant human wild-type UGDH
B3: S316A: purified recombinant human UGDH, phosphodeficient serine 316 to alanine point mutant (protein)
chain: B1 UDP-glucose 6-dehydrogenase with S316A, D325T
modifications: left off: His6, end not stated, state not stated
notes: purified recombinant human UGDH, phosphodeficient serine 316 to alanine point mutant
B4: S316D: purified recombinant human UGDH, phosphomimetic serine 316 to aspartate point mutant (protein)
chain: B1 UDP-glucose 6-dehydrogenase with S316D, D325T
modifications: left off: His6, end not stated, state not stated
notes: purified recombinant human UGDH, phosphomimetic serine 316 to aspartate point mutant

Experiments:
UGDH T325D = UGDH T325D obligate dimer; cited from earlier work
[1] = Thermofluor Stability Assay (thermal denaturation) of purified UGDH; format: physicochemical, human; conditions: for Tm Apo: apo enzyme; for Tm Holo: holoenzyme complex (substrate and cofactor)
Source text: We first generated the UGDH S316 point mutants in a bacterial construct that expressed the proteins with a six-histidine fusion to facilitate purification by nickel affinity chromatography as we have done previously. […] However, UGDH S316D yields were somewhat lower as a result of protein precipitation following purification. To compare the intrinsic stability of the S316 point mutants, we used a modified version of the Thermofluor Stability Assay, which we have used previously as a preliminary indicator of UGDH quaternary assembly. The UGDH WT and UGDH S316A enzymes had significant increases in melting temperature (Tm) upon addition of either substrate or cofactor and were stabilized by almost 20°C in the holoenzyme complex as expected.
Purified S316 mutants were compared to the UGDH WT enzyme using the following approaches as previously described. Enzymatic activity was evaluated by steady state kinetics in the presence and absence of the endogenous inhibitor UDP-Xylose to compare Michaelis constants and IC50 values. Intrinsic stability was assessed by thermal denaturation and quaternary structure was determined by size exclusion chromatography. Binding of UDP-Xylose to recombinant UGDH and mutants was measured by isothermal titration calorimetry using the MicroCal PEAQ-ITC (Malvern Panalytical). UGDH WT (50 μM in 0.1 M sodium phosphate buffer, pH 7.4) was placed in the cell, with UDP-Xyl (250 μM) in the syringe. Binding heats were corrected for the heat of dilution and analyzed using the MicroCal PEAQ-ITC Analysis Software, employing a single-site binding model to determine Kd values.

| Molecule | Vmax values (UGDH T325D) | Tm Apo [1] | Tm Holo [1] |
| --- | --- | --- | --- |
| B1 | 65 to 75 nmol/min/mg | – | – |
| B2 | – | 50±0.4 °C | 68±1.7 °C |
| B3 | – | 49±0.2 °C | 66±3.0 °C |
| B4 | – | 47±1.0 °C | 63±0.3 °C |
